Experimental data reported in the DeepSol protein solubility set.

Experiment: soluble on expression in E. coli; label from the status in PepcDB or PDB records

Row | Sequence | soluble on expression in E. coli
1 | MGSDKIHHHHHHYGGDITYNNHNNFHVLHDRHHRSHHSRSNSRDSDEKWECRRLGVFNSPNPLTNPLLSAPKIAYFNRNGKEYAIAVCENPQIQILVGKSRGASPDFTQTRDYAVLSASSKSGLTFKCNRRHDRYEAVNLVTGSMARIEALACITVAQNDTAAVAIVNGIVGPLQAAGLHL | not soluble
2 | MGSDKIHHHHHHAACADNADLNEPAGSTTPPAQVLNATVKNLPGAAIIYYDLPDDQNLKYVRASYKVDNMVRTVNASFYTDSLVVEGFPTKGEYDIELYSVSYGEVVSSPLVVKVNPDTPPYQKVRGTLVSAETFGGIRVNFDNPEKAKLGLGVIKKQAEGIWTQVYMHYTEAKGGDFYVRGLDAVTTDFGIFVRDRWGHLSDTLYVTETPLYEEQCDKSLFRKMALPTDSYECHSWNEVTKGNDMTRLWDGITDADPCFQTKTTTVMPQWFTFDMGENYKLSRFVMVSRYYPGKYGNTFKAGHPKHFEIWGSINPNPDGSFDDSWVLLSEYESVKPSGGGVNDALTAEDQEAAKNGENFIIPDNAPAVRYIRFRTNNTWGNTRYMHLHELTFFGAKHN | not soluble
3 | SLHAQQKAEQLAEREEMVAELSAAKQQITQSEHWRAECELLNNEVRSLQSINTSLEADLREVTTRMEAAQQHADDKIRQMINSEQRLSEQFENLANRIFEHSNRRVDEQNRQSLNSLLSPLREQLDGFRRQVQDSFGKEAQERHTLTHEIRNLQQLNAQMAQEAINLTRALKGDNKTQGNWGEVVLTRVLEASGLREGYEYETQVSIENDARSRMQPDVIVRLPQGKDVVIDAKMTLVAYERYFNAEDDYTRESALQEHIASVRNHIRLLGRKDYQQLPGLRTLDYVLMFIPVEPAFLLALDRQPELITEALKNNIMLVSPTTLLVALRTIANLWRYEHQSRNAQQIADRASKLYDKMRLFVDDMSAIGQSLDKAQDNYRQAMKKLSSGRGNVLAQAEAFRGLGVEIKREINPDLAEQAVSQDEEYRLRSVPEQPNDEAYQRDDEYNQQSR | not soluble
4 | MLRSLLKSRQVICGLRELRALSTSQGNESIIDFVDTVTETSEAQNQSFASLLRNSKFMQLGDFNGRLVVGKIAQRVQEDVYIDFGLKFNAVCKVPALNSEAYRSGARVLIRLIDPELSERFLGSKHDLTLLEADAVLVRLLSNVPRQQQQRQKPRGATEEEAPAAPETPAAH | not soluble
5 | MGSSHHHHHHSSGLVPRGSHMDRKTEFIECTNAFNEKPKKGIPMLIEKGFIASDSDKDIAEFLFNNNNRMNKKTIGLLLCHPDKVSLLNEYIRLFDFSGLRVDEAIRILLTKFRLPGESQQIERIIEAFSSAYCENQDYDPSKISDNAEDDISTVQPDADSVFILSYSIIMLNTDLHNPQVKEHMSFEDYSGNLKGCCNHKDFPFWYLDRVYCSIRDKEIVMPEEHHGNE | soluble
6 | MKSRYLLFFLPLIVAKYTSAATMQPFHSPEESVNSQFYLPPPPGNDDPAFRYDKEAYFKGYAIKGSPRWKQAAEDADISVENIARIFSPVVGAKISPKDTPETWNMLQNLLKVGGYYATASAKKYYMRTRPFVLFNHSTCRPEDENTLRKDGSYPSGHTAYSTLLALVLSQARPERAQELARRGWEFGQSRVICGAHWQSDVDAGRYVGAVEFARLQTIPAFQKSLAKVREELNDKNNLLSKEERPELNY | soluble
7 | MLLRKGTVYVLVIRADLVNAMVAHARRDHPDEACGVLAGPEGSDRPERHIPMTNAERSPTFYRLDSGEQLKVWRAMEDADEVPVVIYHSHTATEAYPSRTDVKLATEPDAHYVLVSTRDPHRHELRSYRIVDGAVTEEPVNVVEQYLEHHHHHH | not soluble
8 | MRGSHHHHHHGSGSMHQRQTLYQLMDGLNTFYQQSLQQPVATSARQYLEKRGLSHEVIARFAIGFAPPGWDNVLKRFGGNPENRQSLIDAGMLVTNDQGRSYDRFRERVMFPIRDKRGRVIGFGGRVLGNDTPKYLNSPETDIFHKGRQLYGLYEAQQDNAEPNRLLVVEGYMDVVALAQYGINYAVASLGTSTTADHIQLLFRATNNVICCYDGDRAGRDAAWRALETALPYMTDGRQLRFMFLPDGEDPDTLVRKEGKEAFEARMEQAMPLSAFLFNSLMPQVDLSTPDGRARLSTLALPLISQVPGETLRIYLRQELGNKLGILDDSQLERLMPK | soluble
9 | MSLPRFSNVSYEQYWALREQSDEWLEYIDGAVYMAPSPSIKHQLVSSNLHTELGLYFRGKPCNVFAAPTDIELASDKFPDRKVVIPDLSVICDSKGFTETKYVGVPTLIVEILSPSNQAHDLVTKFNLYMAYGVKEYWIVNPMKEAITVYTLNEEGLYEQADVKAGTGVVQSACFPRLEVALEDVFR | not soluble
10 | SNALNLPYDEHADAWTQVKKALAAGKRTHKPTLLVFGANWCTDCRALDKSLRNQKNTALIAKHFEVVKIDVGNFDRNLELSQAYGDPIQDGIPAVVVVNSDGKVRYTTKGGELANARKMSDQGIYDFFAKITE | soluble
11 | MHGKDPFSDFREFINTMESRVQELGKAYGVEHLAGPQGFAVRYLFENQDKEIFIKDIEKKLSISKSVASNLVKRMEKNGFVELVTSDKDKRYKYVHLTDLGKKKAQDVGHFREAIHGQLLDGISKEDAETAFRVFHQIRKNLEKNKELEHHHHHH | soluble
12 | MKIGFIGTGSMGTILIESFLESSALTAEQIVITNRTQEKADALARRYPGLSVVDRPEEVVQQTDCFFVCVKPMQFHRVLMDIRPHCSANKLLVSITSPISIAQLENSVDCKVARAIPSILNRACAGSTLVSFSERCLEEDRSFLCGLLGTISEPLLIEEKITRVSSDIVSCGPAFFSYLTQRFIEAAVRQTAISEEDATALATEMLIGIGKLLDQELYTLPSLQKRVCVPGGITGEGIRVLEEDVGHMFDRLFQKTHQKYYHEQEKISSQLTLKGMAGDPNSLEHHHHHH | not soluble
13 | SAPGVPDARAIAAICEQLRQHVADLGVLYIKLHNYHWHIYGIEFKQVHELLEEYYVSVTEAFDTIAERLLQLGAQAPASMAEYLALSGIAEETEKEITIVSALARVKRDFEYLSTRFSQTQVLAAESGDAVTDGIITDILRTLGKAIWMLGATLKA | soluble
14 | MSEATTTLDGWYCLHDLRSIDWAAWKTLSSDERGQAVSEFLNVVEKWNEVATAKKGSHAMYTVVGQKADIMLMILRPTMEELNEIETELNKTTLAEYMVPAYSYVSVVELSNYLPADEDPYQNPQILARLYPELPKANHICFYPMDKRRQGDDNWYMLPMEERKKMMYSHSKIGRQYAGKVRQVISGSVGFDDFEWGVTLFADDVLQFKKLIYEMRFDEVSARYGEFGTFFVGNILPDEKVEKFLHI | not soluble
15 | MTTPGSSLPPALVDRTALAARRARMRDAALFLHHAALDEVQDRLSLVNRTFTDMAVVTPAPALWAGSFPMARFVAEDEMLDLAPQSCDLVVHAMALHWANDAVGQLIQCRRALRPDGLLLAICFGGQTLHQLRAALAEAEAQVSGGISPRVAPMAEIRDLGALLQRAGLALPVADSLTLTAEYRDLPHLMRDLRQMGEANALSARLRHPTQRAVFERAEEIYAAHFATPDNRLPATFELICLTGWAPDDSQPKPLRPGSASARLAAALGTSETPLPD | not soluble
16 | MAGDPMGTLKLIQYPSQLLSLTISDIINKQNLSQLIQKSKKDDSENWEGKDWIIKNTPQQGINWIGEHPNIKAVIIKTKDGSYADDGWKNNEKTIYSYSFKAAKGIINFNDSANRVLINQPISNYPILLFTDSSNKWEFQGCFKIIDILEKAVILEKMISFPSLNDKNSDNDDVILYKNEHTEGKIKYITHMLSERNRKIIDEIKDNSQWVCDICEIKFLDKYGKNYIEAHHKIPIHTFTGEHRILKTDFALLCPNCHKAVHIYLREENLQYEEAKIKIRNILKRLEHHHHHH | not soluble
17 | SARLADYFIVVGYDHEKPGSGEGLGKIIQRFPQKDWDDTPFPQGIELFCQPGGWQLSRERKQPTFFVVVLTDIDSDRHYCSCLTFYEAEINLQGTKKEEIEGEAKVSGLIQPAEVFAPKSLVLVSRLYYPEIFRACLGLIYTVYVDSLNVSLESLIANLCACLVPAAGGSQKLFSLGAGDRQLIQTPLHDSLPITGTSVALLFQQLGTVAHACNLSTLGGRGGQLTRSGDRDHPG | soluble
18 | MSLLIDKFGRPVTNLRISLTKECNLNCFYCHREGQQDGERTMTPEEIERIVRIASRLGIRNVKLTGGEPTVRPDIYEIIQRIRPYVVDLSMTTNGTTLYASAEKLKEAGLDRVNISLDTLDRKKYKMITGYDVLDQVLKGIRRATNLFYPVKLNMVVMRGINDDEIWDMIRFAGEVNAILQLIEIEVPREMENSQFFKDFFYPLKPLEEKFEKIAVEIRERKMHRRRKYFLPVDGKMVEVEVVRSMHNTTFCMNCTRLRLTADGYLKTCLLRKDDLIDILGPIRRGATDDELVKIFKRAVQLRKPYWINEGHHHHHH | soluble
19 | MELTVKDIQTWLDNYSKVIEEKKDYLSELDTPIGDGDHGNNMARGMAEYKIAFDKKVPTTITETFKVLSMALISKVGGASGPLYGTAFMNMTKATKDLETISSPEQLKEIVQQGLAGIQMRGKAEPGDKTMVDVWAPVAEVIGTEQFNEEKIEQFAEATKDWVAKKGRASYLGERAIGHIDPGAASSALLFEELVKVINQ | not soluble
20 | MGSDKIHHHHHHMGVIQKIKNLVTRSKYVMTTQSLTNITDHPKIAISKLEYDRITTNLKYYKSDWDSVLYLNTDGETKKRDLNHLPIARTAAKKIASLVFNEQAEIKVDDDAANEFISETLKNDRFNKNFERYLESCLALGGLAMRPYVDGDKVRVAFVQAPVFLPLQSNTQDVSSAAVVIKSVKTINGKEVYYTLIEFHEWQSSDDYVISNELYRSDDKAKVGSRVPLSEVYKDLKDEAKVTDVTRPIFTYLKTPGMNNKDINSPLGLSIFDNAKTTIDFINTTYDEFMWEVKMGQRRVAVPESLTALTVRTADGDVVPRPRFESDQNVYIRMGGRDLDSSAIQDLTTPIRADDYIKAINEGLSLFEMQIGVSAGLFSFDGKSMKTATEIVSENSDTYQMRNSIVTLVEQSLKELVISIFEIAKAYDLYQSEVPSMDNISISLDDGVFTDRDAELDYWIKVVNAGFGTREMAIQKVLNVTEEKAQEIAAEINTGIVDEINQQRTDTHLYGE | not soluble
21 | MGSDKIHHHHHHMRKLALPLVAFLTGGLAACSSSDVVESQGITVENCGSVVNFDSPPSHIALMKSAAVPTLDALGVLDRVVTKAGAFPAGYYDADLSERVTDIPTLSNKIDASGHVLISKEVVVAANPDIVFGETDTINRASMASSNIPVVEEPAFCGSIDGDVSFDDVWSQISTYGTIFDRSTEADAYIATLKERVSEVSSRVTDSGKTVAVLYPTIGGGVTYAYGRGSMANPLVAEAGLTNVFADQSERVFEVTAEELISRNPDYIIVLHSDGSPSDIVAEVGNLQGSSALTALSENKVLPILMNFAEPPTPLAVDGLEKIIDFVETHP | not soluble
